According to US20180155451A1 (published 2018):

Columns and labels:
[1] = biological target: T1, FcγRIIb extracellular domain with C-terminal His tag (human, UniProt P31994 43-217); assay: SPR (Biacore), relative binding
T1 construct: extracellular domain; also called FcgRIIb; 2b; not shown: His tag attached to the C terminus
T1 sequence (looked up): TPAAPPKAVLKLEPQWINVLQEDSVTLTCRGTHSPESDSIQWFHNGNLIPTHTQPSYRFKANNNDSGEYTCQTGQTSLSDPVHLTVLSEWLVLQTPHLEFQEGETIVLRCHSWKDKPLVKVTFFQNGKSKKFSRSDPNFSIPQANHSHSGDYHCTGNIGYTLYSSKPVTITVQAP
Procedure: (§1) Analysis of interaction between objective antibody and the FcγR was carried out using Biacore T100 (GE Healthcare). HBS-EP+ (GE Healthcare) was used as the running buffer, and the measurement temperature was set to 25° C. Chips produced by immobilizing the antigen peptide by the amine coupling method to a Series S Sencor Chip CM5 (GE Healthcare), or alternatively, chips produced by allowing preliminarily biotinylated antigen peptides to interact with and immobilize onto a Series S Sensor Chip SA (certified) (GE Healthcare) were used. Antibodies of interest were captured onto an antigen peptide-immobilized chip, and allowed to interact to each FcγR diluted with running buffer. To regenerate and repeatedly use the chip, the antibodies captured on the chip were washed off by reacting 10 mM glycine-HCl, pH 1.5.
(§2) The FcγR-binding activity of each antibody was assessed primarily using as an indicator the FcγR-binding activity and dissociation constant for FcγR.

[2] = biological target: T2, FcγRIIIa extracellular domain with C-terminal His tag (human, UniProt P08637 17-208); assay: SPR (Biacore), relative binding
T2 construct: extracellular domain; also called FcgRIIIa; 3a; not shown: His tag attached to the C terminus
T2 sequence (P08637 17-208): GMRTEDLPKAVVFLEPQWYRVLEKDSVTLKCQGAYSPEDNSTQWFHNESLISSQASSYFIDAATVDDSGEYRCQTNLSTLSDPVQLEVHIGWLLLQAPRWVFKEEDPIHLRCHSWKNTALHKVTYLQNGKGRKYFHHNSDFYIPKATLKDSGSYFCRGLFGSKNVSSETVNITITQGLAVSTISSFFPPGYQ
Procedure: as §1, §2

[3] = biological target: T2, FcγRIIIa extracellular domain with …; assay: SPR (Biacore); He/Con_3a divided by He/Con_2b (reference: binding to FcγRIIb)
Procedure: as §1, §2

He/Con_2b (IIb binding) [1] | He/Con_3a (IIIa binding) [2] | He_3a/2b (IIIa/IIb) [3] | Binder
219 % of GpH7-A5/GpH7-B3/GpL16-k0 (=100) | 79.3 % of GpH7-A5/GpH7-B3/GpL16-k0 (=100) | 0.36 ratio | GpH7-A5/GpH7-B3 variant L328_04F/GpL16-k0 (antibody, human IgG1, kappa, Heterodimerized IgG1; alteration in one H chain only; also called He Ab) heavy 1: not shown heavy 2: not shown light: DIVMTQSPLSLPVTPGEPASISCQASESLVHSNRNTYLHWYLQKPGQSPQLLIYKVSNRFSGVPDRFSGSGSGTDFTLKISRVEAEDVGVYYCSQNTHVPPTFGQGTKVEIERTVAAPSVFIFPPSDEQLKSGTASVVCLLNNFYPREAKVQWKVDNALQSGNSQESVTEQDSKDSTYSLSSTLTLSKADYEKHKVYACEVTHQGLSSPVTKSFNRGEC
65.1 % of GpH7-A5/GpH7-B3/GpL16-k0 (=100) | 40.5 % of GpH7-A5/GpH7-B3/GpL16-k0 (=100) | 0.62 ratio | GpH7-A5/GpH7-B3 variant L328_05P/GpL16-k0 (antibody, human IgG1, kappa, Heterodimerized IgG1; alteration in one H chain only; also called He Ab) heavy 1: not shown heavy 2: not shown light: DIVMTQSPLSLPVTPGEPASISCQASESLVHSNRNTYLHWYLQKPGQSPQLLIYKVSNRFSGVPDRFSGSGSGTDFTLKISRVEAEDVGVYYCSQNTHVPPTFGQGTKVEIERTVAAPSVFIFPPSDEQLKSGTASVVCLLNNFYPREAKVQWKVDNALQSGNSQESVTEQDSKDSTYSLSSTLTLSKADYEKHKVYACEVTHQGLSSPVTKSFNRGEC
64.4 % of GpH7-A5/GpH7-B3/GpL16-k0 (=100) | 30.5 % of GpH7-A5/GpH7-B3/GpL16-k0 (=100) | 0.47 ratio | GpH7-A5/GpH7-B3 variant N325_02A/GpL16-k0 (antibody, human IgG1, kappa, Heterodimerized IgG1; alteration in one H chain only; also called He Ab) heavy 1: not shown heavy 2: not shown light: DIVMTQSPLSLPVTPGEPASISCQASESLVHSNRNTYLHWYLQKPGQSPQLLIYKVSNRFSGVPDRFSGSGSGTDFTLKISRVEAEDVGVYYCSQNTHVPPTFGQGTKVEIERTVAAPSVFIFPPSDEQLKSGTASVVCLLNNFYPREAKVQWKVDNALQSGNSQESVTEQDSKDSTYSLSSTLTLSKADYEKHKVYACEVTHQGLSSPVTKSFNRGEC
111 % of GpH7-A5/GpH7-B3/GpL16-k0 (=100) | 30.3 % of GpH7-A5/GpH7-B3/GpL16-k0 (=100) | 0.27 ratio | GpH7-A5/GpH7-B3 variant N325_03V/GpL16-k0 (antibody, human IgG1, kappa, Heterodimerized IgG1; alteration in one H chain only; also called He Ab) heavy 1: not shown heavy 2: not shown light: DIVMTQSPLSLPVTPGEPASISCQASESLVHSNRNTYLHWYLQKPGQSPQLLIYKVSNRFSGVPDRFSGSGSGTDFTLKISRVEAEDVGVYYCSQNTHVPPTFGQGTKVEIERTVAAPSVFIFPPSDEQLKSGTASVVCLLNNFYPREAKVQWKVDNALQSGNSQESVTEQDSKDSTYSLSSTLTLSKADYEKHKVYACEVTHQGLSSPVTKSFNRGEC
143 % of GpH7-A5/GpH7-B3/GpL16-k0 (=100) | 20.7 % of GpH7-A5/GpH7-B3/GpL16-k0 (=100) | 0.14 ratio | GpH7-A5/GpH7-B3 variant N325_04F/GpL16-k0 (antibody, human IgG1, kappa, Heterodimerized IgG1; alteration in one H chain only; also called He Ab) heavy 1: not shown heavy 2: not shown light: DIVMTQSPLSLPVTPGEPASISCQASESLVHSNRNTYLHWYLQKPGQSPQLLIYKVSNRFSGVPDRFSGSGSGTDFTLKISRVEAEDVGVYYCSQNTHVPPTFGQGTKVEIERTVAAPSVFIFPPSDEQLKSGTASVVCLLNNFYPREAKVQWKVDNALQSGNSQESVTEQDSKDSTYSLSSTLTLSKADYEKHKVYACEVTHQGLSSPVTKSFNRGEC
26 % of GpH7-A5/GpH7-B3/GpL16-k0 (=100) | 10.2 % of GpH7-A5/GpH7-B3/GpL16-k0 (=100) | 0.39 ratio | GpH7-A5/GpH7-B3 variant N325_05P/GpL16-k0 (antibody, human IgG1, kappa, Heterodimerized IgG1; alteration in one H chain only; also called He Ab) heavy 1: not shown heavy 2: not shown light: DIVMTQSPLSLPVTPGEPASISCQASESLVHSNRNTYLHWYLQKPGQSPQLLIYKVSNRFSGVPDRFSGSGSGTDFTLKISRVEAEDVGVYYCSQNTHVPPTFGQGTKVEIERTVAAPSVFIFPPSDEQLKSGTASVVCLLNNFYPREAKVQWKVDNALQSGNSQESVTEQDSKDSTYSLSSTLTLSKADYEKHKVYACEVTHQGLSSPVTKSFNRGEC
217 % of GpH7-A5/GpH7-B3/GpL16-k0 (=100) | 31.4 % of GpH7-A5/GpH7-B3/GpL16-k0 (=100) | 0.14 ratio | GpH7-A5/GpH7-B3 variant N325_06M/GpL16-k0 (antibody, human IgG1, kappa, Heterodimerized IgG1; alteration in one H chain only; also called He Ab) heavy 1: not shown heavy 2: not shown light: DIVMTQSPLSLPVTPGEPASISCQASESLVHSNRNTYLHWYLQKPGQSPQLLIYKVSNRFSGVPDRFSGSGSGTDFTLKISRVEAEDVGVYYCSQNTHVPPTFGQGTKVEIERTVAAPSVFIFPPSDEQLKSGTASVVCLLNNFYPREAKVQWKVDNALQSGNSQESVTEQDSKDSTYSLSSTLTLSKADYEKHKVYACEVTHQGLSSPVTKSFNRGEC
171 % of GpH7-A5/GpH7-B3/GpL16-k0 (=100) | 28.7 % of GpH7-A5/GpH7-B3/GpL16-k0 (=100) | 0.17 ratio | GpH7-A5/GpH7-B3 variant N325_07I/GpL16-k0 (antibody, human IgG1, kappa, Heterodimerized IgG1; alteration in one H chain only; also called He Ab) heavy 1: not shown heavy 2: not shown light: DIVMTQSPLSLPVTPGEPASISCQASESLVHSNRNTYLHWYLQKPGQSPQLLIYKVSNRFSGVPDRFSGSGSGTDFTLKISRVEAEDVGVYYCSQNTHVPPTFGQGTKVEIERTVAAPSVFIFPPSDEQLKSGTASVVCLLNNFYPREAKVQWKVDNALQSGNSQESVTEQDSKDSTYSLSSTLTLSKADYEKHKVYACEVTHQGLSSPVTKSFNRGEC
197 % of GpH7-A5/GpH7-B3/GpL16-k0 (=100) | 33.3 % of GpH7-A5/GpH7-B3/GpL16-k0 (=100) | 0.17 ratio | GpH7-A5/GpH7-B3 variant N325_08L/GpL16-k0 (antibody, human IgG1, kappa, Heterodimerized IgG1; alteration in one H chain only; also called He Ab) heavy 1: not shown heavy 2: not shown light: DIVMTQSPLSLPVTPGEPASISCQASESLVHSNRNTYLHWYLQKPGQSPQLLIYKVSNRFSGVPDRFSGSGSGTDFTLKISRVEAEDVGVYYCSQNTHVPPTFGQGTKVEIERTVAAPSVFIFPPSDEQLKSGTASVVCLLNNFYPREAKVQWKVDNALQSGNSQESVTEQDSKDSTYSLSSTLTLSKADYEKHKVYACEVTHQGLSSPVTKSFNRGEC
124 % of GpH7-A5/GpH7-B3/GpL16-k0 (=100) | 48 % of GpH7-A5/GpH7-B3/GpL16-k0 (=100) | 0.39 ratio | GpH7-A5/GpH7-B3 variant N325_09D/GpL16-k0 (antibody, human IgG1, kappa, Heterodimerized IgG1; alteration in one H chain only; also called He Ab) heavy 1: not shown heavy 2: not shown light: DIVMTQSPLSLPVTPGEPASISCQASESLVHSNRNTYLHWYLQKPGQSPQLLIYKVSNRFSGVPDRFSGSGSGTDFTLKISRVEAEDVGVYYCSQNTHVPPTFGQGTKVEIERTVAAPSVFIFPPSDEQLKSGTASVVCLLNNFYPREAKVQWKVDNALQSGNSQESVTEQDSKDSTYSLSSTLTLSKADYEKHKVYACEVTHQGLSSPVTKSFNRGEC
95.9 % of GpH7-A5/GpH7-B3/GpL16-k0 (=100) | 38.2 % of GpH7-A5/GpH7-B3/GpL16-k0 (=100) | 0.4 ratio | GpH7-A5/GpH7-B3 variant N325_10E/GpL16-k0 (antibody, human IgG1, kappa, Heterodimerized IgG1; alteration in one H chain only; also called He Ab) heavy 1: not shown heavy 2: not shown light: DIVMTQSPLSLPVTPGEPASISCQASESLVHSNRNTYLHWYLQKPGQSPQLLIYKVSNRFSGVPDRFSGSGSGTDFTLKISRVEAEDVGVYYCSQNTHVPPTFGQGTKVEIERTVAAPSVFIFPPSDEQLKSGTASVVCLLNNFYPREAKVQWKVDNALQSGNSQESVTEQDSKDSTYSLSSTLTLSKADYEKHKVYACEVTHQGLSSPVTKSFNRGEC
10.4 % of GpH7-A5/GpH7-B3/GpL16-k0 (=100) | 5.2 % of GpH7-A5/GpH7-B3/GpL16-k0 (=100) | 0.5 ratio | GpH7-A5/GpH7-B3 variant N325_11K/GpL16-k0 (antibody, human IgG1, kappa, Heterodimerized IgG1; alteration in one H chain only; also called He Ab) heavy 1: not shown heavy 2: not shown light: DIVMTQSPLSLPVTPGEPASISCQASESLVHSNRNTYLHWYLQKPGQSPQLLIYKVSNRFSGVPDRFSGSGSGTDFTLKISRVEAEDVGVYYCSQNTHVPPTFGQGTKVEIERTVAAPSVFIFPPSDEQLKSGTASVVCLLNNFYPREAKVQWKVDNALQSGNSQESVTEQDSKDSTYSLSSTLTLSKADYEKHKVYACEVTHQGLSSPVTKSFNRGEC
177 % of GpH7-A5/GpH7-B3/GpL16-k0 (=100) | 65.1 % of GpH7-A5/GpH7-B3/GpL16-k0 (=100) | 0.37 ratio | GpH7-A5/GpH7-B3 variant N325_13S/GpL16-k0 (antibody, human IgG1, kappa, Heterodimerized IgG1; alteration in one H chain only; also called He Ab) heavy 1: not shown heavy 2: not shown light: DIVMTQSPLSLPVTPGEPASISCQASESLVHSNRNTYLHWYLQKPGQSPQLLIYKVSNRFSGVPDRFSGSGSGTDFTLKISRVEAEDVGVYYCSQNTHVPPTFGQGTKVEIERTVAAPSVFIFPPSDEQLKSGTASVVCLLNNFYPREAKVQWKVDNALQSGNSQESVTEQDSKDSTYSLSSTLTLSKADYEKHKVYACEVTHQGLSSPVTKSFNRGEC
91.6 % of GpH7-A5/GpH7-B3/GpL16-k0 (=100) | 39.4 % of GpH7-A5/GpH7-B3/GpL16-k0 (=100) | 0.43 ratio | GpH7-A5/GpH7-B3 variant N325_14T/GpL16-k0 (antibody, human IgG1, kappa, Heterodimerized IgG1; alteration in one H chain only; also called He Ab) heavy 1: not shown heavy 2: not shown light: DIVMTQSPLSLPVTPGEPASISCQASESLVHSNRNTYLHWYLQKPGQSPQLLIYKVSNRFSGVPDRFSGSGSGTDFTLKISRVEAEDVGVYYCSQNTHVPPTFGQGTKVEIERTVAAPSVFIFPPSDEQLKSGTASVVCLLNNFYPREAKVQWKVDNALQSGNSQESVTEQDSKDSTYSLSSTLTLSKADYEKHKVYACEVTHQGLSSPVTKSFNRGEC
